Like-named read-outs stand apart in the source and are kept apart here.
T1: PAH1(115–212) for NMR (UniProt Q60520 115-212)
T1 construct: Sin3A PAH1 domain, residues 115–212; Same construct as m29; also called apo-PAH1; 15N-labelled PAH1(115–212); source: 15N labelled in M9 minimal media
T1 sequence (looked up): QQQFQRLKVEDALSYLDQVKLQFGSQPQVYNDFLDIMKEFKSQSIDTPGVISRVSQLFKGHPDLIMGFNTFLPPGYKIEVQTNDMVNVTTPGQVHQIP


Target: T1, PAH1(115–212) for NMR
Test: NMR titration; 15N-HSQC of 150 µM 15N-labelled PAH1(115–212) with 150 µM unlabelled Tet1(878–911) (1:1; also sub-stoichiometric ratio); 303 K; 20 mM Tris-HCl pH 7.4, 50 mM NaCl, 1 mM DTT; average minimal shift analysis

Δδmin (average minimal shift, relative to the WT complex) (both partners purified)	Molecule	further results
0.061	LSLMKDRRLTLEQVVAAEALTQLSEAPSESSSPS (domain or fragment, UniProt Q3URK3 861-894, looked up, Tag removal for NMR was conducted as needed) [Tet1-SID(878–911) I894A for NMR]	–
0.074	LSLMKDRRLTLEQVVAIEALTQASEAPSESSSPS (domain or fragment, UniProt Q3URK3 861-894, looked up, Tag removal for NMR was conducted as needed) [Tet1-SID(878–911) L900A for NMR]	–
0.026	LSLMKDRRLTLEQVVAIEALAQLSEAPSESSSPS (domain or fragment, UniProt Q3URK3 861-894, looked up, Tag removal for NMR was conducted as needed) [Tet1-SID(878–911) T898A for NMR]	–

The remaining lines, values behind:

Molecule	Δδmin (average minimal shift, relative to the WT complex) (both partners purified)	further results
Tet1-SID(878–911) L897A for NMR (from UniProt Q3URK3 861-894) (domain or fragment)	–	Δδmin (average minimal shift, relative to the WT complex): 0.118; Δδmin (average minimal shift, relative to the apo-protein): 0.061
LSLMKDRRLTLEQVVAIEALTQLSEAPSESSSPS (domain or fragment, UniProt Q3URK3 861-894, looked up, Same construct as m24; also called WT) [Tet1-SID(878–911) for NMR]	–	Kd (both partners purified): < 100 nM
LSLMKDRRLTLEQVVAIEALEQLSEAPSESSSPS (domain or fragment, UniProt Q3URK3 861-894, looked up, Tag removal for NMR was conducted as needed) [Tet1-SID(878–911) T898E for NMR]	0.038	–

— paper PMC6168491, “Sin3A recruits Tet1 to the PAH1 domain via a highly conserved Sin3-Interaction Domain” (Scientific Reports, 2018)
